Assays:
BSA [1] = biological target: BSA (UniProt P02769); experiment: phage ELISA, control well (BSA blocking solution only); phage 0 ng/well (printed); 100% = SEQ 5 phage at 710 ng/well
BSA [2] = biological target: BSA (UniProt P02769); experiment: phage ELISA, control well (BSA blocking solution only); phage 122 ng/well; 100% = SEQ 5 phage at 710 ng/well
BSA [3] = biological target: BSA (UniProt P02769); experiment: phage ELISA, control well (BSA blocking solution only); phage 796 ng/well; 100% = SEQ 5 phage at 710 ng/well
BSA [4] = biological target: BSA (UniProt P02769); experiment: phage ELISA, control well (BSA blocking solution only); phage 3 ng/well; 100% = SEQ 5 phage at 710 ng/well
BSA [5] = biological target: BSA (UniProt P02769); experiment: phage ELISA, control well (BSA blocking solution only); phage 1 ng/well; 100% = SEQ 5 phage at 710 ng/well
BSA [6] = biological target: BSA (UniProt P02769); experiment: phage ELISA, control well (BSA blocking solution only); phage 20 ng/well; 100% = SEQ 5 phage at 710 ng/well
BSA [7] = biological target: BSA (UniProt P02769); experiment: phage ELISA, control well (BSA blocking solution only); phage 18 ng/well; 100% = SEQ 5 phage at 710 ng/well
BSA [8] = biological target: BSA (UniProt P02769); experiment: phage ELISA, control well (BSA blocking solution only); phage 710 ng/well; 100% = SEQ 5 phage at 710 ng/well
BSA [9] = biological target: BSA (UniProt P02769); experiment: phage ELISA, control well (BSA blocking solution only); phage 109 ng/well; 100% = SEQ 5 phage at 710 ng/well
BSA [10] = biological target: BSA (UniProt P02769); experiment: phage ELISA, control well (BSA blocking solution only); phage 859 ng/well; 100% = SEQ 5 phage at 710 ng/well
BSA [11] = biological target: BSA (UniProt P02769); experiment: phage ELISA, control well (BSA blocking solution only); phage 4 ng/well; 100% = SEQ 5 phage at 710 ng/well
BSA [12] = biological target: BSA (UniProt P02769); experiment: phage ELISA, control well (BSA blocking solution only); phage 22 ng/well; 100% = SEQ 5 phage at 710 ng/well
BSA [13] = biological target: BSA (UniProt P02769); experiment: phage ELISA, control well (BSA blocking solution only); phage 132 ng/well; 100% = SEQ 5 phage at 710 ng/well
BSA [14] = biological target: BSA (UniProt P02769); experiment: phage ELISA, control well (BSA blocking solution only); phage 870 ng/well; 100% = SEQ 5 phage at 710 ng/well
BSA [15] = biological target: BSA (UniProt P02769); experiment: phage ELISA, control well (BSA blocking solution only); phage 134 ng/well; 100% = SEQ 5 phage at 710 ng/well

Chain of BSA (P02769 25-607 limits assumed): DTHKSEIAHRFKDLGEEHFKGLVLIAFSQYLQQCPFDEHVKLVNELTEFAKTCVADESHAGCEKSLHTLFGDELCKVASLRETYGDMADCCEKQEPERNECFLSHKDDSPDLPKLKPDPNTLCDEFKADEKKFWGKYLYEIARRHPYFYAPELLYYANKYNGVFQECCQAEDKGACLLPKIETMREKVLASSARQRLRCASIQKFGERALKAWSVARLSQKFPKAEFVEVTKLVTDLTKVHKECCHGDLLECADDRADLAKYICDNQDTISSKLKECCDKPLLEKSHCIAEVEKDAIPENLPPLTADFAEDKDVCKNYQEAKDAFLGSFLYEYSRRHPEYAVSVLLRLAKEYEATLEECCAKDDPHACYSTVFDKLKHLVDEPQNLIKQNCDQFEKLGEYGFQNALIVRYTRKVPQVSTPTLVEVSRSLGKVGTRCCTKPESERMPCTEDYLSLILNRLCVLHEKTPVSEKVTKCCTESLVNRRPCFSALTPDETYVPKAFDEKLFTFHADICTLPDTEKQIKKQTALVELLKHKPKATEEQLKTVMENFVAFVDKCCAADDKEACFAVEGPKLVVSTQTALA

Row | Binder | percentage of binding (BSA [1]) [%] | percentage of binding (BSA [2]) [%] | percentage of binding (BSA [3]) [%] | percentage of binding (BSA [4]) [%] | percentage of binding (BSA [5]) [%] | percentage of binding (BSA [6]) [%] | percentage of binding (BSA [7]) [%] | percentage of binding (BSA [8]) [%] | percentage of binding (BSA [9]) [%] | percentage of binding (BSA [10]) [%] | percentage of binding (BSA [11]) [%] | percentage of binding (BSA [12]) [%] | percentage of binding (BSA [13]) [%] | percentage of binding (BSA [14]) [%] | percentage of binding (BSA [15]) [%]
1 | LWQPPLIPGIDF (peptide, not shown: large carriers) [phage presenting SEQ ID NO: 2 (…)] | 0 | 9 | 12 | 2 | 1 | 4 |  |  |  |  |  |  |  |  | 
2 | SWLQMPWALVRT (peptide, not shown: large carriers) [phage presenting SEQ ID NO: 5 (…)] | 0 |  |  | 1 | 0 |  | 1 | 5 | 3 |  |  |  |  |  | 
3 | QIEPWFTPEDFP (peptide, not shown: large carriers) [phage presenting SEQ ID NO: 3 (…)] | 0 |  |  |  | 0 |  |  |  |  | 10 | 1 | 2 | 5 |  | 
4 | TRLAPLVFPLDY (peptide, not shown: large carriers) [phage presenting SEQ ID NO: 4 (…)] | 0 |  |  |  | 0 |  |  |  |  |  | 0 | 1 |  | 10 | 4
